Measured values as given in patent US12466853B2, “Selective targeting of apoptosis proteins by structurally-stabilized and/or cysteine-reactive NOXA peptides” (priority 2017, dated 2025).
Numbering of substitutions follows the chain as printed.

Tests used:
full-length BFL-1 = target: T1, full-length BFL-1 (Homo sapiens, UniProt Q16548); assay: Covalent crosslinking to full-length BFL-1, recombinant and HA-tagged expressed in 293T cells; assay type: binding; details: recombinant and expressed in 293T cells; somewhat reduced efficiency vs C-terminally truncated species
T1 construct: Recombinant full-length BFL-1 (aa-175) containing an N-terminal hexahistidine tag; made in house
T1 sequence (Q16548 1-175): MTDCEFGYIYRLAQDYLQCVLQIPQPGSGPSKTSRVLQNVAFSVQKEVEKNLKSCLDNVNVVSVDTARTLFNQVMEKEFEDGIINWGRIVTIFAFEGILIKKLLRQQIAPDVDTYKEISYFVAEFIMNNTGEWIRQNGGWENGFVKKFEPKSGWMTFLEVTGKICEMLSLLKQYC
From the text: We confirmed that both of our lead constructs could covalently crosslink to full-length BFL-1 protein, which bears a C-terminal helix that could potentially compete with D-NA-NOXA SAHBs for interaction at the canonical BH3-binding pocket in cancer cells. We generated recombinant full-length BFL-1 and expressed HA-tagged full-length BFL-1 in 293T cells, and then conducted crosslinking analyses in vitro and in treated cells, respectively.
Recombinant full-length BFL-1 (aa-175) containing an N-terminal hexahistidine tag was cloned into the PTYB1 vector (New England Biolabs) and purified as above except for the addition of a chitin affinity chromatography and DTT elution step. Protein purity and identity was confirmed by Coomassie staining and western blot analysis using a mouse monoclonal anti-His6 tag antibody (Abcam).
His-BFL-1ΔC C4S/C19S protein (5 μM) was pre-treated with 10 mM DTT in 50 mM Tris (pH 8.0) and 100 mM NaCl for 30 min at room temperature (final volume […]) and then combined with a 10:1 molar ratio of cysteine-reactive NOXA SAHB for an additional 1-hr incubation at room temperature. The samples were then boiled in 3× loading buffer with DTT and electrophoresed on 12% Bis-Tris gel, then subjected to Coomassie staining.

His-BFL-1ΔC = target: T2, His-BFL-1ΔC (Homo sapiens, UniProt Q16548); assay: Streptavidin pulldown from recombinant protein mixture, BFL-1; assay type: binding; details: equimolar mixture of recombinant MCL-1, BCL-XL, BFL-1 and biotinylated SAHB, silver stain
T2 construct: Recombinant anti-apoptotic BFL-1ΔC (aa 1-151) and its cysteine to serine mutants were cloned into PET17b; made in house; host or cells: Escherichia coli LOBSTR BL21(DE3)
T2 sequence (Q16548 1-151): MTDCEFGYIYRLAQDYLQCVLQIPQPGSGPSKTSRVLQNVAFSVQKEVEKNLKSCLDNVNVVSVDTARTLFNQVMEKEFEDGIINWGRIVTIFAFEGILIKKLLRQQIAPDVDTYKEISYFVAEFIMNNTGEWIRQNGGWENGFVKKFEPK
Experimental: WT His-BFL-1ΔC, BCL-XLΔC (tagless), and GST-MCL-1ΔNΔC (1 μM each) were combined and incubated with 3 mM DTT in PBS for thirty minutes at room temperature. Mixtures were treated with vehicle or the indicated C-terminally biotinylated NOXA SAHB (1 μM) for four hours and were then added to 30 μL PBS-washed high-capacity streptavidin (SA) agarose beads (Thermo Fisher Pierce) and incubated with rotation at room temperature for two hours. The beads were then washed three times with NP-40 lysis buffer (1% NP-40, 50 mM Tris pH 8, 100 mM NaCl, 2.5 mM MgCl2) and three times with PBS. To elute bound protein, beads were boiled for ten minutes with 10% SDS containing 10 mg/mL biotin. After elution, samples were boiled with 3×LDS and 2M DTT for twenty minutes. Gel electrophoresis using a 12% Bis-Tris gel was conducted on inputs (2%) and eluates (5 μL) and gels were developed using the Pierce silver staining kit (Thermo Fisher).

native BFL-1 = target: T3, native BFL-1 (Homo sapiens, UniProt Q16548); assay: BFL-1 targeting in A375P lysates (streptavidin pulldown, BFL-1 western); assay type: binding; details: biotinylated SAHB, compared to acetylated construct
T3 construct: endogenous in cells; host or cells: A375P melanoma cells (A10); U937 AML cells (A12), lysates
T3 sequence (Q16548 1-175): T1 sequence (Q16548 1-175)
Experimental: Cultured A375P and U937 cells were trypsinized or harvested, respectively, washed with PBS, and lysed by incubating with 1% CHAPS lysis buffer (1% CHAPS, 150 mM NaCl, 50 mM Tris pH 7.4, 100 μM DTT). The protein concentrations of the soluble fraction were measured using a BCA kit according to the manufacturer's instructions (Thermo Scientific). Lysate samples (1 mg) were incubated with vehicle or C-terminally biotinylated NOXA SAHBs (30 μM) overnight in 1% CHAPS lysis buffer at 4° C. Biotin capture was accomplished by incubating the mixture with high-capacity SA agarose (Thermo Scientific) for 2 hours at 4° C., followed by centrifugation and washing the pelleted beads three times with lysis buffer (1 mL). Bead-bound proteins were eluted by boiling in 10% SDS containing 10 mg/mL biotin for 10 minutes and then subjected to electrophoresis and western blotting using BFL-1 (Abcam, #125259) and MCL-1 (Rockland #600-401-394S) antibodies.

[1] = target: T4, BFL-1ΔC C4S/C19S / FITC-BID BH3 (Homo sapiens, UniProt Q16548, C19S/C4S); assay: Competitive fluorescence polarization binding assay, BFL-1ΔC C4S/C19S; details: fluorescence polarization competition
T4 construct: Recombinant anti-apoptotic BFL-1ΔC (aa 1-151) and its cysteine to serine mutants were cloned into PET17b; made in house; host or cells: Escherichia coli LOBSTR BL21(DE3)
T4 sequence (Q16548 1-151 C4S/C19S): T2 sequence (Q16548 1-151) with C4S, C19S
Experimental: (§1) Fluorescence polarization (FP) assays were performed as previously described (Pitter et al., 2008 (supra)). Briefly, direct binding curves were first generated by FITC-BID BH3 (25 nM) with serial dilutions of anti-apoptotic protein, and FP was measured at 5 min on a SpectraMax M5 microplate reader (Molecular Devices). For competition assays, a serial dilution of acetylated or warhead-bearing NOXA SAHB was added to the indicated recombinant protein at ˜EC75 concentration, as determined by the direct binding assay. FITC-BID BH3 (25 nM) was then added and fluorescence polarization was measured at equilibrium. IC50 values were calculated by nonlinear regression analysis of competitive binding curves using PRISM software (GraphPad).

[2] = target: T5, BFL-1ΔC C4S/C19S/C55S / FITC-BID BH3 (Homo sapiens, UniProt Q16548, C19S/C4S/C55S); assay: Competitive fluorescence polarization binding assay, BFL-1ΔC C4S/C19S/C55S
T5 construct: Recombinant anti-apoptotic BFL-1ΔC (aa 1-151) and its cysteine to serine mutants were cloned into PET17b; hexahistidine (N); made in house; host or cells: Escherichia coli LOBSTR BL21(DE3)
T5 sequence (Q16548 1-151 C4S/C19S/C55S): T2 sequence (Q16548 1-151) with C4S, C19S, C55S
Experimental: as §1

JAT8LREFGDXLNFRQ [D-NA-NOXA-15 R31E]
covalent crosslinking to full-length BFL-1 (full-length BFL-1): covalent crosslinking to recombinant and expressed full-length BFL-1 | BFL-1 binding / pull down (His-BFL-1ΔC): striking competitive advantage for BFL-1 targeting over its acetylated counterpart | targeting of native BFL-1 (native BFL-1): enhanced targeting of native BFL-1 | disruption of BFL-1ΔC C4S/C19S / FITC-BID BH3 interaction [1]: displays the ability to disrupt the interaction | competition for FITC-BID BH3 binding to BFL-1ΔC C4S/C19S/C55S [2]: neither D-NA- nor Ac-NOXA15 R31E competes
